In the supplement of paper PMC7877785:
± gives the uncertainty stated by the source.

Test: self-splicing fitness, log relative to wild type (ln ratio); higher = more splicing; Tetrahymena group I intron in knt gene, E. coli kanamycin selection, DiMSum; sequences stand for … in CUCUCU…GGAGGGAAAAGUUAUCAGGCAUGCACCUGGUAGCUAGUCUUUAAACCAAUAGAUUGCAUCGGUUUAAAAGGCAAGACCGUCAAAUUGCGGGAAAGGGGUCAACAGCCGUUCAGUACCAAGUCUCAGGGGAAACUUUGAGAUGGCCUUGCAAAGGGUAUGGUAAUAAGCUGACGGACAUGGUCCUAACCACGCAGCCAAGUCCUAAGUCAACAGAUCUUCUGUUGAUAUGGAUGCAGUUCACAGACUAAAUGUCGGUCGGGGAAGAUGUAUUCUUCUCAUAAGAUAUAGUCGGACCUCUCCUUAAUGGGAGCUAGCGGAUGAAGUGAUGCAACACUGGAGCCGCUGGGAACUAAUUUGUAUGCGAAAGUAUAUUGAUUAGUUUUGGAGUACUCGUGGUCG
Outline: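 The eight P1ex-region nucleotides of an intron in the knt kanamycin-resistance gene on pET-22b(+) were all randomised and the library put into E. coli BL21(DE3). Six replicate transformations were grown overnight at 37°C or 30°C on LB agar with or without 25 μg/mL kanamycin, together with 100 μg/mL carbenicillin, 50 μM IPTG and 0.2% rhamnose. Colonies were pooled and amplicon-sequenced on an Illumina HiSeq 2500. Fitness from DiMSum is the error-weighted combination of wild-type-normalised replicate fold changes, kanamycin over none.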

Sequence	self-splicing fitness (ln) (30 °C)	self-splicing fitness (ln) (37 °C)
CGUUAGCAAUAUUACGGGGG	-4.81 ± 0.45	-3.46 ± 0.29
UGGAAGCAAUAUUACGGGGG	-2.52 ± 0.32	-2.89 ± 0.49
CGACAGCAAUAUUACGGACC	-2.09 ± 0.083	-0.0291 ± 0.11
AGCGAGCAAUAUUACGACGA	-1.13 ± 0.22	-2.2 ± 0.31
CAUCAGCAAUAUUACGUAAU	-2.56 ± 0.09	-1.4 ± 0.1
ACCGAGCAAUAUUACGGCCU	-0.622 ± 0.086	0.418 ± 0.11
CUCUAGCAAUAUUACGCUGC	-3.58 ± 0.44	–
CUGCAGCAAUAUUACGGCGA	-0.954 ± 0.14	-0.847 ± 0.13
CAUGAGCAAUAUUACGAUUG	-4.17 ± 0.26	-3.15 ± 0.24
GACGAGCAAUAUUACGCCAG	–	-2.63 ± 0.28
UUUCAGCAAUAUUACGCCUC	–	-1.38 ± 0.41
GGAAAGCAAUAUUACGUUAA	-3.35 ± 0.16	-1.84 ± 0.15
UGUCAGCAAUAUUACGACCG	-0.0146 ± 0.18	0.122 ± 0.25
UAUGAGCAAUAUUACGUUAG	-2.63 ± 0.17	-2.23 ± 0.22
GUGUAGCAAUAUUACGGAUG	-3.29 ± 0.41	-0.59 ± 0.35
GGCAAGCAAUAUUACGCGAG	-2.32 ± 0.14	-3.34 ± 0.24
AAUGAGCAAUAUUACGGAAG	-3.49 ± 0.3	-2.63 ± 0.23
AAAGAGCAAUAUUACGUAUU	-3.03 ± 0.2	-1.2 ± 0.14
UAACAGCAAUAUUACGUGGG	-4.35 ± 0.15	-2.75 ± 0.091
CUCAAGCAAUAUUACGAGAA	-1.89 ± 0.31	-1.1 ± 0.24

Sequence	self-splicing fitness (ln) (30 °C)	self-splicing fitness (ln) (37 °C)
GGGUAGCAAUAUUACGCACA	-0.833 ± 0.2	0.402 ± 0.22
CAGUAGCAAUAUUACGCACC	-2.03 ± 0.26	-1.61 ± 0.43
UUCUAGCAAUAUUACGGGGG	-3.75 ± 0.37	-2.09 ± 0.22
CCAUAGCAAUAUUACGACAC	-2.94 ± 0.29	-1.99 ± 0.37
GCCCAGCAAUAUUACGUCCA	-0.999 ± 0.09	-1.18 ± 0.12
AGUUAGCAAUAUUACGUCUC	-3.73 ± 0.37	-2.44 ± 0.36
GGUUAGCAAUAUUACGUUCC	-1.45 ± 0.11	-0.8 ± 0.12
AAAAAGCAAUAUUACGGGAG	-2.11 ± 0.11	-1.04 ± 0.12
GUCGAGCAAUAUUACGGUCG	-2.44 ± 0.22	-1.94 ± 0.28
CAACAGCAAUAUUACGAGCU	-3.61 ± 0.18	-2.44 ± 0.17
CGGAAGCAAUAUUACGGGAC	-3.5 ± 0.3	–
AUUUAGCAAUAUUACGAAAG	-2.86 ± 0.25	-0.748 ± 0.17
UUCUAGCAAUAUUACGUUUU	-3.83 ± 0.23	-2.92 ± 0.18
GGGUAGCAAUAUUACGGGUC	-2.32 ± 0.17	-1.1 ± 0.18
ACCCAGCAAUAUUACGUCUG	-3.16 ± 0.12	-2.79 ± 0.14
GCAUAGCAAUAUUACGUUCC	–	-2.25 ± 0.31
UACCAGCAAUAUUACGUUGC	-4.31 ± 0.32	-2.6 ± 0.25
AACGAGCAAUAUUACGCUUC	-3.1 ± 0.25	-1.7 ± 0.3
AAUGAGCAAUAUUACGUAGG	-3.19 ± 0.15	-2.6 ± 0.24
